Measured values reported in article PMC3681735.

Target: NtRPT6-GFP (Nicotiana tabacum) (UniProt L7UU40)

Substance: XopJ-myc (from UniProt A0AB38E6N7 1-316) (natural protein)
- proteasome activity (breakdown of Suc-LLVY-AMC) in total extracts of N. benthamiana leaves transiently expressing XopJ-myc, against the empty vector control: 40%
